This note sets out measurements from article PMC4194032 (Cell, 2014).

Common to all, as to assay: split reporter
One assay concerns the target Heh1-VN (budding yeast) (UniProt Q03707).
A further assay deals with T1, Snf7-VN (budding yeast, UniProt P39929 1-240).
T1 sequence (looked up): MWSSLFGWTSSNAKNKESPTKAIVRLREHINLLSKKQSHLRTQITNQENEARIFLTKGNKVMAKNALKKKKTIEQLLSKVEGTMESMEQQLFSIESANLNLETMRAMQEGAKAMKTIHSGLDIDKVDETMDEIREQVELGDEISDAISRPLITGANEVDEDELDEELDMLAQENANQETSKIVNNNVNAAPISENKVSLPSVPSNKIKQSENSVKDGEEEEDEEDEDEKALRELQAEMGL

A further assay addresses T2, Heh2-VN (budding yeast, UniProt Q03281 1-663).
T2 sequence (looked up): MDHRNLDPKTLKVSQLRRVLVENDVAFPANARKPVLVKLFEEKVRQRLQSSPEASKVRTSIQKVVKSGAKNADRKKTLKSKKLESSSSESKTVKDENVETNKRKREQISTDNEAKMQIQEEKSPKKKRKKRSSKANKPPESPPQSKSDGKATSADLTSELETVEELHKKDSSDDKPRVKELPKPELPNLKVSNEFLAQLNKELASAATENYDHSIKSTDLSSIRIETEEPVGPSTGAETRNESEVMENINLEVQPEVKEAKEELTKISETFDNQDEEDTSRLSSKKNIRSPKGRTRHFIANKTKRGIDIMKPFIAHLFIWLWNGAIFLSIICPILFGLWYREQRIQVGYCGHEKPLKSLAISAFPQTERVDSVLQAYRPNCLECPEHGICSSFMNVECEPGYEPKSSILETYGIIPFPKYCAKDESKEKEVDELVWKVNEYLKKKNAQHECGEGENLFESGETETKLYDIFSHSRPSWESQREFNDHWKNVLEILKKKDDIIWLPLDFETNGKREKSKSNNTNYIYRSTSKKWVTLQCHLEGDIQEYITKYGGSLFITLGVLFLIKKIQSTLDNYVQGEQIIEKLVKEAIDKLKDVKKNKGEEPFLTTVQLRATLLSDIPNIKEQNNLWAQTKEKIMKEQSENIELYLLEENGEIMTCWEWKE

Chain of Heh1-VN (budding yeast) (Q03707 whole entry): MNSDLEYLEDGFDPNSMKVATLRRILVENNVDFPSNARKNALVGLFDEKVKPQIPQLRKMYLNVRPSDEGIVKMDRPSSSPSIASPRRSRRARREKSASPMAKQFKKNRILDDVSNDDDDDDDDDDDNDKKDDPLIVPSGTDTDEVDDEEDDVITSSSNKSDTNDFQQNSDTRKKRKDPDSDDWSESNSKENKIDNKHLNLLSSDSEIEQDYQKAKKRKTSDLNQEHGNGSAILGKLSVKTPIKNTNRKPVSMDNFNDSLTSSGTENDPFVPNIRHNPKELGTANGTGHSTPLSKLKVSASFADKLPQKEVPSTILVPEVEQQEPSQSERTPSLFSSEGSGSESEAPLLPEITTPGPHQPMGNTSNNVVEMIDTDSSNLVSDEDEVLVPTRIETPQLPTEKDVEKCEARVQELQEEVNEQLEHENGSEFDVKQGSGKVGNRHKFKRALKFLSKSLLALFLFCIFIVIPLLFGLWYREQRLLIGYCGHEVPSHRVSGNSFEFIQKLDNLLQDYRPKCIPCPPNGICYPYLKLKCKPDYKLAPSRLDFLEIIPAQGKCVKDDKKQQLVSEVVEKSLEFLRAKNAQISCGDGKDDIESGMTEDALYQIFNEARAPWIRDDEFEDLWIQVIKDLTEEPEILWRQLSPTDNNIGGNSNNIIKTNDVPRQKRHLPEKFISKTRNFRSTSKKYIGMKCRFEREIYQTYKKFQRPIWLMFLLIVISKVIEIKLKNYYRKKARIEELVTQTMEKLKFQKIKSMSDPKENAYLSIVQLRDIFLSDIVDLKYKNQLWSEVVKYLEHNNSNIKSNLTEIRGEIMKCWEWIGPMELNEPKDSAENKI

In the case of “Snf7-VC (from UniProt P39929 1-240) (natural protein)”, the percent of cells with Venus fluorescence with Heh1-VN (budding yeast) was 45 % of cells.

B1: Bro1-VC (natural protein, budding yeast, UniProt P48582 1-844, looked up)
chain: MKPYLFDLKLKDTEKLDWKKGLSSYLKKSYGSSQWRTFYDEKATSELDHLRNNANGELAPSSLSEQNLKYYSFLEHLYFRLGSKGSRLKMDFTWYDAEYSSAQKGLKYTQHTLAFEKSCTLFNIAVIFTQIARENINEDYKNSIANLTKAFSCFEYLSENFLNSPSVDLQSENTRFLANICHAEAQELFVLKLLNDQISSKQYTLISKLSRATCNLFQKCHDFMKEIDDDVAIYGEPKWKTTVTCKLHFYKSLSAYYHGLHLEEENRVGEAIAFLDFSMQQLISSLPFKTWLVEFIDFDGFKETLEKKQKELIKDNDFIYHESVPAVVQVDSIKALDAIKSPTWEKILEPYMQDVANKCDSLYRGIIPLDVYEKESIYSEEKATLLRKQVEETETANLEYSSFIEFTNLPRLLSDLEKQFSDGNIFSNTDTQGQLMRDQIQTWCKFIQTNEFRDIEEQMNKIVFKRKQILEILSALPNDQKENVTKLKSSLVAASNSDEKLFACVKPHIVEINLLNDNGKIWKKFDEFNRNTPPQPSLLDIDDTKNDKILELLKQVKGHAEDLRTLKEERSRNLSELRDEINNDDITKLLIINKGKSDVELKDLFEVELEKFEPLSTRIEATIYKQSSMIDDIKAKLDEIFHLSNFKDKSSGEEKFLEDRKNFFDKLQEAVKSFSIFASDLPKGIEFYDSLFNMSRDLAERVRVAKQTEDSTANSPAPPLPPLDSKASVVGGPPLLPQKSAAFQSLSRQGLNLGDQFQNLKISAGSDLPQGPGIPPRTYEASPYAATPTMAAPPVPPKQSQEDMYDLRRRKAVENEERELQENPTSFYNRPSVFDENMYSKYSS
Regarding B1, the “percent of cells with Venus fluorescence” value with Snf7-VN was ~90 % of cells.

B2: Vps20-VC (natural protein, budding yeast, UniProt Q04272 1-221, looked up)
chain: MGQKSSKVHITKTDRAILEVKRSKDEIHKFTRRTDNLILVEKSQLKDLIRKNPENYKSNMKVRFLLKRIHYQEHLLQQASDQLINLENMVSTLEFKMVEKQFINGLKNGNEILKKLNKEFSNVDELMDDVQDQIAYQNEINETLSRSLVGTSNYEDDLDKELDALESELNPEKMNNAKVANMPSTEGLPSLPQGEQTEQKEREEFATEERSDTKEPLALLS
As to B2, in the assay with Snf7-VN, the “percent of cells with Venus fluorescence” value is ~90 % of cells.

B3: Snf7-VC (natural protein, budding yeast, UniProt P39929 1-240, looked up)
chain: MWSSLFGWTSSNAKNKESPTKAIVRLREHINLLSKKQSHLRTQITNQENEARIFLTKGNKVMAKNALKKKKTIEQLLSKVEGTMESMEQQLFSIESANLNLETMRAMQEGAKAMKTIHSGLDIDKVDETMDEIREQVELGDEISDAISRPLITGANEVDEDELDEELDMLAQENANQETSKIVNNNVNAAPISENKVSLPSVPSNKIKQSENSVKDGEEEEDEEDEDEKALRELQAEMGL
As to B3, in the assay with Heh2-VN, the “percent of cells with Venus fluorescence” value is ~18 % of cells.
